{"source": "IntAct's records for PubMed 22314232", "parents": {"B1": {"name": "Calnexin (Homo sapiens), P27824 (parent)", "chain": "MEGKWLLCMLLVLGTAIVEAHDGHDDDVIDIEDDLDDVIEEVEDSKPDTTAPPSSPKVTYKAPVPTGEVYFADSFDRGTLSGWILSKAKKDDTDDEIAKYDGKWEVEEMKESKLPGDKGLVLMSRAKHHAISAKLNKPFLFDTKPLIVQYEVNFQNGIECGGAYVKLLSKTPELNLDQFHDKTPYTIMFGPDKCGEDYKLHFIFRHKNPKTGIYEEKHAKRPDADLKTYFTDKKTHLYTLILNPDNSFEILVDQSVVNSGNLLNDMTPPVNPSREIEDPEDRKPEDWDERPKIPDPEAVKPDDWDEDAPAKIPDEEATKPEGWLDDEPEYVPDPDAEKPEDWDEDMDGEWEAPQIANPRCESAPGCGVWQRPVIDNPNYKGKWKPPMIDNPSYQGIWKPRKIPNPDFFEDLEPFRMTPFSAIGLELWSMTSDIFFDNFIICADRRIVDDWANDGWGLKKAADGAAEPGVVGQMIEAAEERPWLWVVYILTVALPVFLVILFCCSGKKQTSGMEYKKTDAPQPDVKEEEEEKEEEKDKGDEEEEGEEKLEEKQKSDAEEDGGTVSQEEEDRKPKAEEDEILNRSPRNRKPRRE"}}, "data": [{"variants_of": "B1", "conditions": "with SEC61A1, P61619", "values": [{"variant": "P494L", "effect of a mutation on the interaction": "disrupting interaction"}]}, {"variants_of": "B1", "conditions": "with rl12_human RPL12, P30050", "values": [{"variant": "P494L", "effect of a mutation on the interaction": "disrupting interaction"}]}]}
